# Measured values as given in the supplement of paper PMC10567573.
# B1: ZNF511 (parent)
# chain: AAPFRFVARPVRFPREHQFFEDGD
# Variants of: B1
# Test: protein stability index of a GFP-peptide fusion (GPS, HEK-293T) (PSI 1-6); higher = more stable
# Conditions: c terminus: a fixed tail appended
# 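Further: lentivirally expressed fusions sorted by FACS into six bins by GFP to DsRed ratio, PSI derived from sequencing read proportions per bin multiplied by bin number.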
row,Variant,protein stability index
1,AAPFRFVARPVRFPVEHQFFEDGD [R15V],1.86
2,AAPFRFVARPVRFPYEHQFFEDGD [R15Y],1.71
3,AAPFRFVARPVRFPWEHQFFEDGD [R15W],1.65
4,AAPFRFVARPVRFPREYQFFEDGD [H17Y],2.11
5,AAPFRFVARPVRFPREWQFFEDGD [H17W],1.72
6,AAPFRFVARPVRFPREEQFFEDGD [H17E],2.71
7,AAPFRFVARPVRFPREFQFFEDGD [H17F],1.73
8,AAPFRFVARPVRFPRECQFFEDGD [H17C],2.66
9,AAPFRFVARPVRFPRERQFFEDGD [H17R],2.29
10,AAPFRFVARPVRFPREAQFFEDGD [H17A],2.66
11,AAPFRFVARPVRFPREKQFFEDGD [H17K],2.2
12,AAPFRFVARPVRFPRENQFFEDGD [H17N],2.71
13,AAPFRFVARPVRFPREQQFFEDGD [H17Q],2.45
14,AAPFRFVARPVRFPRETQFFEDGD [H17T],2.35
15,AAPFRFVARPVRFPREVQFFEDGD [H17V],1.94
16,AAPFRFVARPVRFPREPQFFEDGD [H17P],1.92
17,AAPFRFVARPVRFPREGQFFEDGD [H17G],2.29
18,AAPFRFVARPVRFPREMQFFEDGD [H17M],2.37
19,AAPFRFVARPVRFPRESQFFEDGD [H17S],2.2
20,AAPFRFVARPVRFPREIQFFEDGD [H17I],2.59
21,AAPFRFVARPVRFPRELQFFEDGD [H17L],2.15
22,AAPFRFVARPVRFPREDQFFEDGD [H17D],2.05
23,AAPFRFVARPVRFPREHHFFEDGD [Q18H],1.7
24,AAPFRFVARPVRFPREHNFFEDGD [Q18N],2.33

row,Variant,protein stability index
1,AAPFRFVARPVRFPREHMFFEDGD [Q18M],2.86
2,AAPFRFVARPVRFPREHGFFEDGD [Q18G],1.87
3,AAPFRFVARPVRFPREHRFFEDGD [Q18R],2.27
4,AAPFRFVARPVRFPREHFFFEDGD [Q18F],1.69
5,AAPFRFVARPVRFPREHCFFEDGD [Q18C],1.64
6,AAPFRFVARPVRFPREHLFFEDGD [Q18L],2.18
7,AAPFRFVARPVRFPREHYFFEDGD [Q18Y],1.74
8,AAPFRFVARPVRFPREHIFFEDGD [Q18I],2.26
9,AAPFRFVARPVRFPREHSFFEDGD [Q18S],2.46
10,AAPFRFVARPVRFPREHDFFEDGD [Q18D],1.8
11,AAPFRFVARPVRFPREHAFFEDGD [Q18A],2.77
12,AAPFRFVARPVRFPREHEFFEDGD [Q18E],1.96
13,AAPFRFVARPVRFPREHWFFEDGD [Q18W],2.44
14,AAPFRFVARPVRFPREHTFFEDGD [Q18T],1.69
15,AAPFRFVARPVRFPREHVFFEDGD [Q18V],1.9
16,AAPFRFVARPVRFPREHPFFEDGD [Q18P],2.05
17,AAPFRFVARPVRFPREHKFFEDGD [Q18K],2.46
18,AAPFRFVARPVRFPREHQFLEDGD [F20L],2.96
19,AAPFRFVARPVRFPREHQFGEDGD [F20G],2.59
20,AAPFRFVARPVRFPREHQFHEDGD [F20H],1.91
21,AAPFRFVARPVRFPREHQFCEDGD [F20C],2.95
22,AAPFRFVARPVRFPREHQFDEDGD [F20D],2.54
23,AAPFRFVARPVRFPREHQFREDGD [F20R],2.32
24,AAPFRFVARPVRFPREHQFPEDGD [F20P],2.75

row,Variant,protein stability index
1,AAPFRFVARPVRFPREHQFEEDGD [F20E],2.52
2,AAPFRFVARPVRFPREHQFMEDGD [F20M],2.49
3,AAPFRFVARPVRFPREHQFNEDGD [F20N],2.56
4,AAPFRFVARPVRFPREHQFQEDGD [F20Q],2.42
5,AAPFRFVARPVRFPREHQFKEDGD [F20K],2.46
6,AAPFRFVARPVRFPREHQFSEDGD [F20S],2.96
7,AAPFRFVARPVRFPREHQFIEDGD [F20I],2.27
8,AAPFRFVARPVRFPREHQFAEDGD [F20A],2.2
9,AAPFRFVARPVRFPREHQMFEDGD [F19M],3.14
10,AAPFRFVARPVRFPREHQYFEDGD [F19Y],2.57
11,AAPFRFVARPVRFPREHQQFEDGD [F19Q],2.46
12,AAPFRFVARPVRFPREHQKFEDGD [F19K],2.08
13,AAPFRFVARPVRFPREHQTFEDGD [F19T],2.81
14,AAPFRFVARPVRFPREHQNFEDGD [F19N],2.52
15,AAPFRFVARPVRFPREHQHFEDGD [F19H],2.39
16,AAPFRFVARPVRFPREHQCFEDGD [F19C],2.08
17,AAPFRFVARPVRFPREHQLFEDGD [F19L],2.61
18,AAPFRFVARPVRFPREHQVFEDGD [F19V],2.11
19,AAPFRFVARPVRFPREHQGFEDGD [F19G],2.8
20,AAPFRFVARPVRFPREHQDFEDGD [F19D],2.48
21,AAPFRFVARPVRFPREHQRFEDGD [F19R],2.4
22,AAPFRFVARPVRFPREHQPFEDGD [F19P],2.63
23,AAPFRFVARPVRFPREHQIFEDGD [F19I],1.87
24,AAPFRFVARPVRFPREHQWFEDGD [F19W],2.04

row,Variant,protein stability index
1,AAPFRFVARPVRFPREHQSFEDGD [F19S],2.25
2,AAPFRFVARPVRFPREHQEFEDGD [F19E],2.61
3,AAPFRFVARPVRFPREHQAFEDGD [F19A],2.52
4,AAPFRFVARPVRFPRSHQFFEDGD [E16S],2.1
5,AAPFRFVARPVRFPRGHQFFEDGD [E16G],2.53
6,AAPFRFVARPVRFPRKHQFFEDGD [E16K],2.15
7,AAPFRFVARPVRFPRAHQFFEDGD [E16A],3.2
8,AAPFRFVARPVRFPRHHQFFEDGD [E16H],2.25
9,AAPFRFVARPVRFPRWHQFFEDGD [E16W],1.79
10,AAPFRFVARPVRFPRFHQFFEDGD [E16F],1.82
11,AAPFRFVARPVRFPRLHQFFEDGD [E16L],2.26
12,AAPFRFVARPVRFPRQHQFFEDGD [E16Q],2.18
13,AAPFRFVARPVRFPRYHQFFEDGD [E16Y],1.68
14,AAPFRFVARPVRFPRTHQFFEDGD [E16T],2.18
15,AAPFRFVARPVRFPRIHQFFEDGD [E16I],2.03
16,AAPFRFVARPVRFPRNHQFFEDGD [E16N],1.75
17,AAPFRFVARPVRFPRMHQFFEDGD [E16M],1.57
18,AAPFRFVARPVRFPRVHQFFEDGD [E16V],2.34
19,AAPFRFVARPVRFPRCHQFFEDGD [E16C],1.93
20,AAPFRFVARPVRFPRPHQFFEDGD [E16P],2.55
21,AAPFRFVARPVRFPRDHQFFEDGD [E16D],1.98
22,AAPFRFVARPVRFPRRHQFFEDGD [E16R],2.32
